The values below come from US20180177166.

Common to all, as to experiment: cell_activity
Series [1] concerns ssMYF5 1.1 TALEN right (synthetic (Xanthomonas TALE-FokI)?). Particulars: TALEN pair with P3, pig fibroblasts; site printed on top strand.
Series [2] deals with ssMYOD 1.2 TALEN right (synthetic (Xanthomonas TALE-FokI)?). Particulars: TALEN pair with P1, pig fibroblasts.
Series [3] deals with ssMYOD 1.2 TALEN left (synthetic (Xanthomonas TALE-FokI)?). The following applies: TALEN pair with P2, triplex transfection with HDR oligo, pig fibroblasts, HindIII RFLP.
Series [4] deals with ssMYF6 1.2 TALEN right (synthetic (Xanthomonas TALE-FokI)?). The following applies: TALEN pair with P5, pig fibroblasts; site printed on top strand.
For series [5], the system named is ssMYF6 1.2 TALEN left (synthetic (Xanthomonas TALE-FokI)?). The following applies: TALEN pair with P6, triplex transfection with HDR oligo, pig fibroblasts, HindIII RFLP.
Series [6] concerns ssMYF5 1.1 TALEN left (synthetic (Xanthomonas TALE-FokI)?). Particulars: TALEN pair with P4, triplex transfection with HDR oligo, pig fibroblasts, HindIII RFLP.

“AAATCCACCACCATGG (double strand) [ssMYF5 1.1 right half-site]”: in series [1], the activity (% HDR alleles) came out at 31.

As for “AGGCTGCCCAAGGTGG (double strand) [ssMYOD 1.2 right half-site]”, the activity (% HDR alleles) in series [2] stood at 14.

In the case of “CAAGAGGTGCACCAC (double strand) [ssMYOD 1.2 left half-site]”, in series [3], the activity (% HDR alleles) amounted to 14.

In the case of “GACAGCAGTGGAGAGGA (double strand) [ssMYF6 1.2 right half-site]”, in series [4], the activity (% HDR alleles) was found to be 36.

“GCCAGGACCAAATGCC (double strand) [ssMYF6 1.2 left half-site]” showed an activity (% HDR alleles) in series [5] of 36.

In turn, “GCCTCATGTGGGCCTG (double strand) [ssMYF5 1.1 left half-site]” returned an activity (% HDR alleles) in series [6] of 31.
